Experimental data reported in the RNAGym collection of RNA variant scans (doi:10.1073/pnas.2313332121).
Fewer inactive variants are shown than the library holds.

B1: TPR 5TU (parent)
chain: GGAUCUUCUCGAUCUAACAAAAAAGACAAAUCUGCCACAAAGCUUGAGAGCAUCUUCGGAUGCAGAGGCGGCAGCCUUCGGUGGCGCGAUAGCGCCAACGUUCUCAACUAUGACACGCAAAACGCGUGCUCCGUUGAAUGGAGUUUAUCAUG

Variants of: B1
Assay: polymerase ribozyme fitness, log enrichment relative to wild type (log ratio); higher = more active; in vitro selection for triplet polymerase activity
How it was run: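 PCR was used to build mutant libraries for each subunit of a heterodimeric triplet polymerase ribozyme, which were then transcribed. A single in vitro selection round, in triplicate, used a frozen incubation at −7 °C and recovered extended constructs by gel excision, streptavidin beads and RT-PCR. Fitness is the logarithm of genotype enrichment relative to wild-type enrichment, averaged over replicates with inverse-variance weights. The logarithm is base 2, and after Illumina sequencing only genotypes with ≥10 input reads and ≥1 read per output were kept.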

Point of comparison: GGUUCUUCUCGAUCAAACAAAAAAGACAAAUCUGCCACAAAGCUUGAGAGCAUCUUCGGAUGCAGAGGCGGCAGCCUUCGGCGGCACGAUGGCGCCAACGUUCUCAACUAUGACACGCAAAACGCGUGCUCCGUUGAAUGGAGUUUAUCAUG, “polymerase ribozyme fitness (log ratio)” value -3.4. Against it:
- GGUUCUUCUCGAGCUAACAAAAAAGACAAAUCUGCCACAAAGCUUGAGAGCAUCUUCGGAUGCAGAGGCGGCAGCCUUCGGUGGCGCGAUAGCGCCAACGUUCUCAACUAUGACACGCAAAACGCGUGCUCCGUUGAAUGGAGUUUAUCAUG — higher, 0.0481
- GGUUCUUCUCGAUCUAACAAAAAAGACAAAUCUGCCACAAAGCUUGAGAGCAUCUUCGGAUUCAGAGGCGGCAGCCUUCGGUGGCGCGAUAGCGCCAACGUUCUCAACUAUGACACGCAAAACGCGUGCUCCGUUGAAUGGAGUUUAUCAUG — higher, -0.505
- GGAACUUCUCGAUCUUUCAAAAAAGACAACUCUGCCACGAAGCUUGAGUGCAUCUUCGGAUGCAGAGGCGGCAGCCUUCGGUGGCGGGCUAGCGCCAACGUUCUCAACUAUGACACGCAAAACGCGUGCUCCCUUGAACGGAGUUUAUCAUG — lower, ≤ -4.2
- GGUUCGUCUCGAUCUAACAAAAAAGACAAAUCUGCCACAAAGCUUGAAAGCAUCUUCGGAUGCAGAGGCGGCAGCCUUCGGUGGCGCGAUAGCGCCAACGUUCUCAGCUAUGACACGCAAAACGCGUGCUCCGUUGAAUGGAGUUUAUCAUG — lower, ≤ -4.2
- GGUUCUUCUCGAUCAAACAAUAAAGACAAAACUGCCACAAAGCUUGAGAGCAUCUUCGGAUGCAGAGGCGGCAGCCUUCGGUGGGGCGAUAGCGCCAACGUUCUCAACUAUGACACGCAAAACGCGUGCUCCGUUGAAUGGAGUUUAUCAUG — higher, -0.347
- GGUUCUUCUCGAUCUAACAAAAAAGACAAAUCUGCCACAAAGCUUGAGAGCAUCUUCGGAUGCAGAGGCGGCAGCCUUCGGUGGCGCGAUAGCGCUAACGUUCUCAACUAUGACACGCAAAACGCGUGCUCCGUUGAAUGGAGUUUAUCAUG — higher, -0.0857
- GGUUCUUCACGAUCUAACAAAACAGAGAAAUCUGCCACAAAGCUUGAGAGCAUCUUCGGAUGCAGAGGCGGCAGCCUUCGAUGGGGCGAUAGCGCCAACGUUCUCAACUAUGACACGCAAAACGCGUGCUCAGUUGAAUGGAGUUUAUCAUG — lower, ≤ -4.2
- GGUUCUUCUCGAUCUAACAAAAAAGACAAAUCUGCCACAAAGCUUGAGAGCAUCUUCAGAUGCAGAGGCGGCAGCCUUCGGUGGCGCGAUAGCGCCAACGUUCUCAACUAUGACACGCAAAACGCGUGCACCGUUGAAUGGAGUUUAUCAUG — lower, -3.64
- GGAACUUCUCGAUCUAACAAGAAAGACAAAUCUGCCACAAAGCUUGAGAGCAUCUUCGGAUGCAGAGACGGCGGCCUUCGGUGGCUCGAUAGCGCCAACGUUCUCAACUAUGACACGCAAAACGCGUGCUCCGUUGAAUGGGGUUUAUCAUG — lower, ≤ -4.2
- GGAACUUCUCGAUCUAACAAACAAGACAAAUCUGCCACAAAGCUUGAGAGCAUCUUCGGAUGCAGAGGCGGCAGCCUUCGGUGGCGCGAUAGCGCGAACGUUCUCAACUAUGACACGCUAAACGCGUGCUCCGUUGAAUGGAGUUUAUUAUG — higher, -3.08
- GGUUCUUCUCGAUCUAACAAAAAAGACAAAUCUGCCACAAAGCUUGAGAGCAUCUUCGGAUGCAGAGACGGCAGCCAUCGGUGGGGCGAUAGCGCCAACGUUCUCAACUAUGACACGCAAAACGCGUGCUCCGUUGAAUGGAGUUUAUGAUG — lower, ≤ -4.2
- GGAACUUCUCGAUCUAACAAUAAAGACAAAUCUGCCACAAAGCUUGAGAACAUCUUCGGAUGCAGAGACGGCAAGCUUCGGUGGCGCGAUAGUGCCAACGUUCUCACCUAUGACACGCAAAACGCGUGCUGCGUUGAAUGGAGUUUAUCAUG — lower, ≤ -4.2
- GGUUCGUCUCGAUCUAACAAAAAAGACAAAUCUGUCACAAAGCUUGAGAGCAUCUUCGGAUGCAGAGGCGGCAGCUUUCGGUGGCGGGAUAGCGCCAACGUUAUCAACUAUGACACGCAAAACGCGUGCUCCGUUGCAUGGAGUUUAUCAUA — lower, ≤ -4.2
- GGAACUUCUCGAUCUAACAAAAAAGACAAAUCUGCCACAAGGCUUGAGAGCAUCUUCGGAUGCAGAGGCGGCAGCCUUCGGUGACGCGAUAGCGCCAACGUUCUCAACUAUGACACGCAAAACGCGUGCUCCGUUGAAGGGAGUUCAUCAUG — higher, -0.701
- GGUUCUUCUCGAUCUAACAAAAAAGACAAAUCUGCCACAAAGCUUGAGAGCAUCUUCGGAUGCAGAGGCGGCAGCCUUCGGUGGCGCGAUAGCGCCAACGUUCUCAACUAUGACACGCAAAACGCGUGCUCCGUUGAAUGGAGGUUAUCAUG — higher, 0.419
- GGAACUUCUCGAUCUAUCAAAAAAGACAAAUCUGCCACAAAGCUUGAGAGCAUCUUCGGAUGCAGGGGAGGCAGCCUUCGGUGUCGCGAUAGCGCCAACGUUCUCAACUAUGACACGCAAAACGCGUGCUCCGUUGAUUGGAGUUUAUCAUG — lower, ≤ -4.2
- GGUUCUUCUCGAUCUAACAAAAAAGACAAAUCUGCCACAAAGCUUGAGAGCAUCUUCGAAUGCAGAGGCGGCAGUCUUCGGUGGCGCGAUAGAGCCAACGUUCUCAACUAUGACACGCAAAACGCGUGCUCCGUUGAGUGGAGUUUAUCAUG — lower, -3.95
- GGUUCUUCUCGAUCUAACAAAAAAGACAAAUCUGCCACAAAGCUUGAGAGCAUCUUCGGAUGCAGAGGCGGCAGCCUUCGGUGGCGCGAUAGCGCCAACGUUCUCAAGUAUGACACGCAAUACGCGUGCUCCGUUGAAUGGAGUUUAUCAUG — lower, ≤ -4.2
